Measurements from US7384773B1, “Crystal of HIV protease-cleaved human beta secretase and method for crystallization thereof” (Pfizer Inc, priority 2001, dated 2008).

Molecular target: T1, beta secretase (Homo sapiens, UniProt P56817)
T1 construct: made in house; host or cells: CHO-K1 cells (secreted, glycosylated)
Assay: beta secretase enzymatic activity assayed by HPLC analysis of the products
Assay type: biochemical
Details: CHO cell derived human beta secretase cleaved at F39-V40 by HIV-1 protease and purified, compared with non-treated beta secretase
Protocol: Purified HIV-1 protease treated (and non-treated) beta secretase were assayed for activity by HPLC analysis of the products.

B1: HIV-1 protease treated beta secretase: CHO cell expressed recombinant human beta secretase proteolytically cleaved with HIV protease (N-terminus V40), used for crystallization (protein)
chain: VEMVDNLRGKSGQGYYVEMTVGSPPQTLNILVDTGSSNFAVGAAPHPFLHRYYQRQLSSTYRDLRKGVYVPYTQGKWEGELGTDLVSIPHGPNVTVRANIAAITESDKFFINGSNWEGILGLAYAEIARPDDSLEPFFDSLVKQTHVPNLFSLQLCGAGFPLNQSEVLASVGGSMIIGGIDHSLYTGSLWYTPIRREWYYEVIIVRVEINGQDLKMDCKEYNYDKSIVDSGTTNLRLPKKVFEAAVKSIKAASSTEKFPDGFWLGEQLVCWQAGTTPWNIFPVISLYLMGEVTNQSFRITILPQQYLRPVEDVATSQDDCYKFAISQSSTGTVMGAVIMEGFYVVFDRARKRIGFAVSACHVHDEFRTAAVEGPFVTLDMEDCGYNIPQTDESHHHHHH
- more enzymatic activity than non-treated (unprocessed) beta secretase: 10-20%
